Data on seven molecules can be found in patent US20230355734A1 (VIRGINIA COMMONWEALTH UNIVERSITY, published 2023).

Assay [1] concerns the target T1, human Factor H (human, UniProt P08603 19-1231).
T1 construct: Purified human FH bought from CompTech; added in solution at 10 ug/mL in the ELISA and 40 ug/mL in the cleavage assay; also called FH; human FH
Kind of assay: ELISA, immobilized recombinant protein, human FH 10 ug/mL.

Assay [2] has as its target T1, human Factor H. Kind of assay: ELISA, immobilized recombinant protein, FH in solution.

T1 sequence (P08603 19-1231 limits assumed): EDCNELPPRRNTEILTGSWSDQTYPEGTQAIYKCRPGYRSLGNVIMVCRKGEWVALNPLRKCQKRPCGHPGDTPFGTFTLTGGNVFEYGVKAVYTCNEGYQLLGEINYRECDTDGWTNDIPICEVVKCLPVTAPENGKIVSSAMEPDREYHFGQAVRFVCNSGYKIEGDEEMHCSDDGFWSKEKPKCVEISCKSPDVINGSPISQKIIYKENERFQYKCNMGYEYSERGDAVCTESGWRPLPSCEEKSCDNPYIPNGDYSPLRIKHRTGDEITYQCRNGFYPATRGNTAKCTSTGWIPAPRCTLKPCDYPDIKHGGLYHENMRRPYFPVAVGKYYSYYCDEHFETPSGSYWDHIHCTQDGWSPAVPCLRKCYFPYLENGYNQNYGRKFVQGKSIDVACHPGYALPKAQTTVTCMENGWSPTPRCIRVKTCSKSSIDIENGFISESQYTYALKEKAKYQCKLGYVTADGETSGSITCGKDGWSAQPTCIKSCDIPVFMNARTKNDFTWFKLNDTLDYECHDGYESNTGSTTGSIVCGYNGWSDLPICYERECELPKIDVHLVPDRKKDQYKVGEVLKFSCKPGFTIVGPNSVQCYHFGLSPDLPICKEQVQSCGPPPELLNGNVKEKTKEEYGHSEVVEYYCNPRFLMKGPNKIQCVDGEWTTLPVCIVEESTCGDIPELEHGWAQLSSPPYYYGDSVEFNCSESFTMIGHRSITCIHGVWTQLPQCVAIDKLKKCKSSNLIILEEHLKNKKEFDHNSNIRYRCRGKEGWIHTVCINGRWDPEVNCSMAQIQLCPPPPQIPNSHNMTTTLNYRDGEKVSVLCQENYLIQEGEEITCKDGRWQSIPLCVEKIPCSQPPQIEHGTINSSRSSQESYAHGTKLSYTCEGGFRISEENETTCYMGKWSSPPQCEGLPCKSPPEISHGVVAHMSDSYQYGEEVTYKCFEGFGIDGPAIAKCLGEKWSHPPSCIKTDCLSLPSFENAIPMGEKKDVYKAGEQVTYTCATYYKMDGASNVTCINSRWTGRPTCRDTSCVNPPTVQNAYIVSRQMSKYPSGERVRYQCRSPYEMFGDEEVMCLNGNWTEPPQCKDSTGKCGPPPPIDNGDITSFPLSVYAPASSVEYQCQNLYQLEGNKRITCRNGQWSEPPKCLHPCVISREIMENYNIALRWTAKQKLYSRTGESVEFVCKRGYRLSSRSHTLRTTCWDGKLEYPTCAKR

B1: FhbB3SP64E45A/D58A (receptor)
chain: FKMNTAQKAHYEAFIADLERAAKDNPMPAHIVKAGLDAANAIAATLNFKIVDKKAGTEIAKGTKAAELRKRFVPKKK
notes: also called FhbBSP64E45A/D58A; FhbB3SP64 mutant; not shown: N-terminal hexa-histidine tag from vector pET46-Ek LIC
Take B1: the binding result in assay [1] is “binds”.

B2: FhbB3 of strain 35404, E45A or D58A site-directed mutant (receptor)
chain: FKMNTAQNAHYEAFISGLERGAKDNPMLAQVVKAGLDLANDGAAALNYKIVDKKPGTDIAKGTKAAELRKRFIPKKIKT
notes: also called FhbB335404 mutant; not shown: N-terminal hexa-histidine tag from vector pET46-Ek LIC
For B2, the binding result in assay [2] was “no binding (tested: 10 µg mL^-1 human FH)”.

B3: FhbB1 of strain 35405, E45A site-directed mutant (receptor)
chain: TFKMNTAQKAHYEKFINALENALKTRHIPAGAVIDMLAEINTEALALDYQIVDKKPGTSIAQGTKAAALRKRFIPKKIKA
notes: also called FhbB135405 mutant; not shown: N-terminal hexa-histidine tag from vector pET46-Ek LIC
On to B3, for which, in assay [2], the binding result was “no binding (tested: 10 µg mL^-1 human FH)”.

B4: FhbB-ch5 pentavalent chimeric (FhbB135405-FhbB2SP50-FhbB333521-FhbB335404-FhbB3SP64, mutated) (other)
chain: TFKMNTAQKAHYEKFINALENALKTRHIPAGAVIDMLAEINTEALALDYQIVDKKPGTSIAQGTKAAALRKRFIPKKIKAFKMNTAQKAHYEAFIKVLEKAAERNPIDAQVVVEALGAVNIDALAKNLNYQVIDKKPGTDIATGTKAAELRKRFVPKKIKAFKMNTAQKAHYEAFISGLENAVKDNPMTAQNVKEGLDLANVGAAALNFKIVDKKAGTEIAKGTKAAELRKRFVPKKKAFKMNTAQNAHYEAFISGLERGAKDNPMLAQVVKAGLDLANDGAAALNYKIVDKKPGTDIAKGTKAAELRKRFIPKKIKTFKMNTAQKAHYEAFIADLERAAKDNPMPAHIVKAGLDAANAIAATLNFKIVDKKAGTEIAKGTKAAELRKRFVPKKK
notes: purified on nickel; not shown: N-terminal hexa-histidine tag from vector pET46-Ek LIC
With B4, the binding result in assay [1] is recorded as “binds”.

B5: FhbB3 of strain 33521, E45A or D58A site-directed mutant (receptor)
chain: FKMNTAQKAHYEAFISGLENAVKDNPMTAQNVKEGLDLANVGAAALNFKIVDKKAGTEIAKGTKAAELRKRFVPKKKA
notes: also called FhbB333521 mutant; not shown: N-terminal hexa-histidine tag from vector pET46-Ek LIC
For the molecule B5, the binding result in assay [2] is on record as “no binding (tested: 10 µg mL^-1 human FH)”.

B6: FhbB-ch4 tetravalent chimeric (FhbB135405-FhbB2SP50-FhbB333521-FhbB335404, mutated) (other)
chain: TFKMNTAQKAHYEKFINALENALKTRHIPAGAVIDMLAEINTEALALDYQIVDKKPGTSIAQGTKAAALRKRFIPKKIKAFKMNTAQKAHYEAFIKVLEKAAERNPIDAQVVVEALGAVNIDALAKNLNYQVIDKKPGTDIATGTKAAELRKRFVPKKIKAFKMNTAQKAHYEAFISGLENAVKDNPMTAQNVKEGLDLANVGAAALNFKIVDKKAGTEIAKGTKAAELRKRFVPKKKAFKMNTAQNAHYEAFISGLERGAKDNPMLAQVVKAGLDLANDGAAALNYKIVDKKPGTDIAKGTKAAELRKRFIPKKIK
notes: purified on nickel; also called Fhb-ch4; not shown: N-terminal hexa-histidine tag from vector pET46-Ek LIC
B6: the binding result in assay [2] was “no binding (tested: 10 µg mL^-1 human FH)”.

B7: FhbB2 of strain SP50, E45A or D58A site-directed mutant (receptor)
chain: FKMNTAQKAHYEAFIKVLEKAAERNPIDAQVVVEALGAVNIDALAKNLNYQVIDKKPGTDIATGTKAAELRKRFVPKKIKA
notes: also called FhbB2SP50 mutant; not shown: N-terminal hexa-histidine tag from vector pET46-Ek LIC
B7: in assay [2], the binding result was “no binding (tested: 10 µg mL^-1 human FH)”.
